Laboratory results published in patent US20240076389A1 (NATIONAL RESEARCH COUNCIL OF CANADA, published 2024).
Where a chain is given by its changes, count along the chain named.

T1: rhTyro-3 (human, UniProt Q06418 41-429)
T1 construct: extracellular domain
T1 sequence (looked up): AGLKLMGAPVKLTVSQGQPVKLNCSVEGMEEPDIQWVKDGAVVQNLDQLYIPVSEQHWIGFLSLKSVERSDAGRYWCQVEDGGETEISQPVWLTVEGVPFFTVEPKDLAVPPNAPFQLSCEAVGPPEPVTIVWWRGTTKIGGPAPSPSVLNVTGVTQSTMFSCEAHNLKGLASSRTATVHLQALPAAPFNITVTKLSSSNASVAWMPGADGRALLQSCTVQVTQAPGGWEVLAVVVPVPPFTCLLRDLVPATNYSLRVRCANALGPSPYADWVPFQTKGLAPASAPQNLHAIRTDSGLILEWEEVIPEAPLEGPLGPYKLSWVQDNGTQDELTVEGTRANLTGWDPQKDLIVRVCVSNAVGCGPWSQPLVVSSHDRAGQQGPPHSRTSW

T2: rhMER-ECD (human, UniProt Q12866 21-505)
T2 construct: extracellular domain
T2 sequence (looked up): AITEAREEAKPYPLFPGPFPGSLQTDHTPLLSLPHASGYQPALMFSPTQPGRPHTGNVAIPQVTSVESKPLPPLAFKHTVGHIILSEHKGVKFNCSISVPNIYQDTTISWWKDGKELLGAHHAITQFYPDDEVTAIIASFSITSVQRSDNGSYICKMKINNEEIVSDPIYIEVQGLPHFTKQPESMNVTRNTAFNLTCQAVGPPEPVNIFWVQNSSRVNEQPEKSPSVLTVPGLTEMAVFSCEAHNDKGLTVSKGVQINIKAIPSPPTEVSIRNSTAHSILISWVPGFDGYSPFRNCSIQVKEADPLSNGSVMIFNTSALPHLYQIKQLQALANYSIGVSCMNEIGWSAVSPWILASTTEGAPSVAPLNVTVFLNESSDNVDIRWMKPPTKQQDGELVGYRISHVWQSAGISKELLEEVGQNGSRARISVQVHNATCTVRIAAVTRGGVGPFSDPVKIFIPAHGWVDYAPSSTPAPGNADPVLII

T3: human AXL expressed on the cell surface of tumor cell lines (human, UniProt P30530 26-894)
T3 construct: whole, on cells; also called cell surface-expressed AXL; cell-based AXL
T3 sequence (looked up): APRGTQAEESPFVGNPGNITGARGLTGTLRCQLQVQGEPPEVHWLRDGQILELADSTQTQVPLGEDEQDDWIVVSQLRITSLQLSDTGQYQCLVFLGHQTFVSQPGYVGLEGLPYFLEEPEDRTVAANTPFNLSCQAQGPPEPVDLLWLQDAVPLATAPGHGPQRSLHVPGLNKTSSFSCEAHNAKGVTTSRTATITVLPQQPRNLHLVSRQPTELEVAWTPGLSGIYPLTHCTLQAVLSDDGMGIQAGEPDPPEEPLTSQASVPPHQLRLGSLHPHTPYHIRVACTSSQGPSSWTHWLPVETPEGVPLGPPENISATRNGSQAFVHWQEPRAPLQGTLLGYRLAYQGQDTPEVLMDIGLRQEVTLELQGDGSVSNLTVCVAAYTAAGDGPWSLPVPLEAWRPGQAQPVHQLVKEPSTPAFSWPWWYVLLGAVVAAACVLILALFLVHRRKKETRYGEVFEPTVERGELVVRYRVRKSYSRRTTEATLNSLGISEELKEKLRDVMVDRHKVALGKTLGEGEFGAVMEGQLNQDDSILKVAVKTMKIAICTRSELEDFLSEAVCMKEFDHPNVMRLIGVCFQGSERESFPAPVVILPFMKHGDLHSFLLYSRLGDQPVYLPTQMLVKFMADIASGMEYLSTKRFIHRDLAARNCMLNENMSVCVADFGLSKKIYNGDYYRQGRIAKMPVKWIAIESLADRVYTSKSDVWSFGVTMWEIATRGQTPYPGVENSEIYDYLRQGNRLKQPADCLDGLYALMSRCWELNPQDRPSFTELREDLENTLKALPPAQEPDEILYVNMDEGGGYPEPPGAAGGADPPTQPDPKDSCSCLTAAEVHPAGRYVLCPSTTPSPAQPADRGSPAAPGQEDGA

B1: F111-5E9 (antibody, V domains shown)
VH: QIQLVQSGPELKKPGETVKISCKASGYTFTKYGMNWVKQAPGKGLKWMGWINTYTGEPTYADDFKGRFAFSLETSASTAYLQINNLTTEDMVTYFCAKGGYYSNPIYPMDYWGQGTSVTVSS
VL: DIQMTQTTSSLSASLGDRVTISCRASQDINNYLNWYQQKPDGTVKLLIYYISRLHSGVPSRFSGSGSGTDYSLTISNLELEDVATYFCQQGNTLPFTFGSGTKLEIK
notes: also called F111-5E9-2; mAb 5E9
B2: F111-3C8 (antibody, V domains shown)
VH: QVQLQQPGAELGKPGTSVKLSCKASGYTFTSYWMHWVKRVPGQGLEWIGNINPNSTSADYNEKFKRKATLTVDKSSSTAYMQLSTLTSEDSAVYYCTRPLMGPYWYFDVWGTGTTVTVSS
VL: QIVLTQSPAIMSASPGEKVTISCSASSSVSYMYWYQQKPGSSPKPWIYRTSNLASGVPARFSGSGSGTSYSLTISSMEAEDAATYYCQQYHNYPPTFGGGTKLEIK
notes: also called F111-3C8-2
B3: F107-10G1 (antibody, V domains shown)
VH: EVNLVESGGGVVKPGASLKLSCEASGFTFSNYGMSWVRQTSDKRLEWVASISGGGGRTYYLDNVKGRFIISRENAKNTLYLQMSSLKSEDTALFYCARGARASYFAMDYWGQGSSVTVSS
VL: VIVMTQSHKFMSTSVGDRVSITCKASQDVTTAVAWYQQKPGQSPKLLIYWASTRHTGVPDRFTGSGSGTDYSLTISNVQTEDLAFYYCQQHFTTPLTFGAGTKLELK
notes: also called F107-10G1-3
B4: F107-8D12 (antibody, V domains shown)
VH: QVQLQQPGAELVKPGASVQLSCKASGYTFISFWINWVKQRPGQGLEWMGNIFPGSSSTNYNEKFKSKATLTVDKSSSTAYMQLSSLTSEDSAVYFCARDYYGGSPDYWGQGTTLTVSS
VL: DIVMSQSPSSLAVSAGERVTMSCKSSQSLLNTRTRKNYLAWYQQKPGQSPKLLIYWASTRESGVPDRFTGSGSGTDFTLTISSVQAEDLAVYYCKQSYNLWTFGGGTKLEIK
notes: also called F107-8D12-2; mAb 8D12
B5: F107-7H5 (antibody, V domains shown)
VH: QVQLQQPGAELVKPGASVKLSCKASGYTFTSYWINWVKQRPGQGLEWIGNIYPDSSSTNYNEKFKSKATLTVDKSSTTAYIQFSSLTSEDSAVYYCTRDTYGGSPDYWGQGTTLTVSS
VL: B4 VL with R18K, T32S, N37I, E61Q
notes: also called F107-7H5-2; mAb 7H5

Assays:
[1] = target: T1, rhTyro-3; assay: ELISA on coated antigen
Description: (§1) To evaluate the cross-reactivity of the mAb to other members of the TAM receptor tyrosine kinase subfamily, binding of the mAb to rhAXL-ECD, rhMER-ECD, rhTyro-3 and BSA (negative control) was measured by ELISA. 96-w half-area plates (Costar) were coated with 25 μl of rhAXL-ECD, rhMER-ECD, rhTyro-3 or BSA at 5 μg/ml in PBS and incubated overnight at 4° C. Microplates were washed 3 times with PBS, blocked with PBS-BSA 1%, and 25 μl of a 10 μg/ml diluted in PBS-BSA 1% were added and incubated at 37° C., 5% CO₂ for 2 hours. Plates were washed 4 times with PBS-TWEEN™ 20 0.05% and incubated for one hour at 37° C., 5% CO₂ with 25 μl of secondary antibody alkaline phosphatase conjugated F(ab)′2 goat anti-mouse IgG (H+L) (Jackson Immunoresearch) diluted 1/5000 in blocking buffer. After 4 washes with PBS-Tween 20 0.05%, 25 μl of a 1 mg/ml pN PP substrate solution was added and further incubated for one hour at 37° C. OD405 nm measurements were done using a microplate reader (Spectramax 340 PC, Molecular Devices).

[2] = target: T4, BSA (UniProt P02769 25-607); assay: ELISA on coated antigen
T4 construct: also called BSA (negative control)
T4 sequence (P02769 25-607 limits assumed): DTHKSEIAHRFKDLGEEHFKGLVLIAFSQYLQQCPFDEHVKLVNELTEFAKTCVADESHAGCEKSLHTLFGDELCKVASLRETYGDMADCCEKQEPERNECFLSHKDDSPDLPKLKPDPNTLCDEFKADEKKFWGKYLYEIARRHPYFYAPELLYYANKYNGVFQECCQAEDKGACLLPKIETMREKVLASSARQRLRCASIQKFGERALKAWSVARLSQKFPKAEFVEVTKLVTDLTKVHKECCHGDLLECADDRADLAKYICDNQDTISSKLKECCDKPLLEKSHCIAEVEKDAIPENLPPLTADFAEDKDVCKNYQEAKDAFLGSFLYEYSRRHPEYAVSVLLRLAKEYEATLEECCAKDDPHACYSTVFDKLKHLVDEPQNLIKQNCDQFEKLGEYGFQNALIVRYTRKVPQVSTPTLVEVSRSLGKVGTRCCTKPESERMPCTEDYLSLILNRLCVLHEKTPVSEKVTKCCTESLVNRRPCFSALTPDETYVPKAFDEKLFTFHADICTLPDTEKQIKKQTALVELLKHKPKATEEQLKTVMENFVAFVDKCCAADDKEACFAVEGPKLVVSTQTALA
Description: as §1

[3] = target: T2, rhMER-ECD; assay: ELISA on coated antigen
Description: as §1

[4] = target: T3, human AXL expressed on the cell surface …; assay: flow cytometry on H292 cells, one site-specific binding with Hill slope
Description: Detection of antibody binding to surface AXL by flow cytometry. Prior to analysis, cells were plated such that they were not more than 80% confluent on the day of analysis. Cells were washed in PBS and harvested by the addition of cell dissociation buffer (Sigma). A cell suspension containing 2.5×10⁵ cells (in 500 μl corresponding cell culture media) was incubated with various concentrations (0.01-10 nM) of anti-AXL antibodies for 2 h at 4° C. (to prevent internalization). Following one wash with cell culture media, primary antibody was incubated with 2 μg DYLIGHT™ 488 conjugated AffiniPure goat anti-mouse IgG Alexa 488 secondary antibody (Jackson ImmunoResearch) in 100 μl of media for 1 h at 4° C. Prior to analysis, cell pellets were re-suspended in 300-500 μl media and filtered through a 50 μm nylon mesh filter to remove cell aggregates. Flow cytometry analyses were performed on 10,000 viable cells gated on forward scattering, side scattering parameters and propidium iodide dye exclusion using a BD LSRII flow Cytometer (Becton-Dickinson Biosciences, CA, USA) and a standard filter set using BD FACSDiva™ acquisition software, according to manufacturer's instructions.
Specific detection of antibody binding was calculated as the mean fluorescent intensity of binding to each primary antibody after background level subtraction of the mean fluorescent intensity of binding in the absence of primary antibody (but containing detection antibody). Binding parameters Bmax, (maximum fluorescence signal at receptor saturation), and KD (apparent cell binding constant) were then determined using a One site—Specific binding with Hill slope model in GraphPad Prism v 6.0.

Row | Binder | binding result [1] | binding result [2] | binding result [3] | Bmax [4] [MFI]
1 | B1 | no binding (tested: 10 µg/ml) | no binding (tested: 10 µg/ml) | no binding (tested: 10 µg/ml) | 1150
2 | B2 | no binding (tested: 10 µg/ml) | no binding (tested: 10 µg/ml) | no binding (tested: 10 µg/ml) | 1480
3 | B3 | no binding (tested: 10 µg/ml) | no binding (tested: 10 µg/ml) | no binding (tested: 10 µg/ml) | 937
4 | B4 | no binding (tested: 10 µg/ml) | no binding (tested: 10 µg/ml) | no binding (tested: 10 µg/ml) | 1310
5 | B5 | no binding (tested: 10 µg/ml) | no binding (tested: 10 µg/ml) | no binding (tested: 10 µg/ml) | 1430
